“Also recorded” adds a separate entry of the source.
System: human OPC
Test: Expression of MBP in human OPC in primary culture stimulated by MSRV-Env, with or without GNbAC1 (immunocytochemistry)
Assay type: cell-based
Conditions: for MBP positive cells, normalized to control condition (buffer = 100%): pooled data
Experimental: Full length recombinant MSRV-Env was produced and purified by PX′Therapeutics (548 aa; 61.44 KDa) (batch 110719-1). The initial concentration was 0.6 mg/ml (9.76 μM). MSRV-Env Buffer (20 mM Trizma-HCl, pH 7.5, 150 mM NaCl, 1.5% SDS, 10 mM DTT) was provided by PX′Therapeutics. This solution was used as a negative control. GNbAC1 (Batch T96/bAC1/B1; GMP production) was produced and purified by Polymun Scientific, Vienna, Austria. The initial concentration was 10 mg/ml (68.03 μM).
Human OPC were stimulated with the different treatments either by coating solutions on the cell culture plate surface before cells seeding or by adding them in the cell culture medium after cells seeding. In any case, labtek 8-wells chamber slides (Nunc) were previously coated with poly-L-lysine (Sigma-Aldrich) overnight at 37° C.
The different treatments were diluted in PBS under a sterile laminar flow hood (Fischer Bioblock, France) and the Labtek 8 wells chambers slides (Nunc; 250 μl per well) were coated as follows: • MSRV-Env (1 μg/ml) coated for 2 hours at 37° C. • MSRV-Env Buffer (same dilution than MSRV-Env) coated for 2 hours at 37° C. • MSRV-Env+GNbAC1 A1: MSRV-Env (1 μg/ml) and GNbAC1 (7.35 μg/ml=50 nM) mixture coated for 2 hours at 37° C. • MSRV-Env+GNbAC1 A2: MSRV-Env (1 μg/ml) and GNbAC1 (29.4 μg/ml=200 nM) mixture coated for 2 hours at 37° C. • MSRV-Env+GNbAC1 B1: MSRV-Env (1 μg/ml) coated for 2 hours at 37° C., washed with PBS and subsequently coated with GNbAC1 (7.35 μg/ml=50 nM) for 1 hour at 37° C. • MSRV-Env+GNbAC1 B2: MSRV-Env (1 μg/ml) coated for 2 hours at 37° C., washed with PBS and subsequently coated with GNbAC1 (29.4 μg/ml=200 nM) for 1 hour at 37° C. • GNbAC1 A1 alone: GNbAC1 (7.35 μg/ml=50 nM) coated for 2 hours at 37° C. • GNbAC1 A2 alone: GNbAC1 (29.4 μg/ml=200 nM) coated for 2 hours at 37° C. • GNbAC1 B1 alone: PBS for 2 hours at 37° C., then coated with GNbAC1 (7.35 μg/ml=50 nM) for 1 hour at 37° C. • GNbAC1 B2 alone: PBS for 2 hours at 37° C., then coated with GNbAC1 (29.4 μg/ml=200 nM) for 1 hour at 37° C. • BSA (1 μg/ml) coated for 2 hours at 37° C. • BSA+GNbAC1 A1: BSA (1 μg/ml) and GNbAC1 (7.35 μg/ml=50 nM) mixture coated for 2 hours at 37° C. • BSA+GNbAC1 A2: BSA (1 μg/ml) and GNbAC1 (29.4 μg/ml=200 nM) mixture coated for 2 hours at 37° C. • BSA+GNbAC1 B1: BSA (1 μg/ml) coated for 2 hours at 37° C., washed with PBS and subsequently coated with GNbAC1 (7.35 μg/ml=50 nM) for 1 hour at 37° C. • BSA+GNbAC1 B2: BSA (1 μg/ml) coated for 2 hours at 37° C., washed with PBS and subsequently coated with GNbAC1 (29.4 μg/ml=200 nM) for 1 hour at 37° C. Human Oligodendrocyte Precursor Cells Culture
The vial containing the human OPC was placed in a 37° C. water bath and gently agitated by rotation until the content was completely thawed. The cells were gently resuspended with a 1 ml Gilson pipette. Then, they were diluted in complete OPCM, and seeded into the 8-wells labtek culture vessels (7000 cells/cm^2=10000 cells per well) previously coated with poly-L-lysine (0.01%, Sigma) and with (or without) the treatments described above (see 3.2.1.1) under a sterile laminar flow hood (Fischer Bioblock, France). The cultures were incubated at 37° C.; 5% CO2 until subsequent immunocytochemistry experiments. The growth medium was changed the next day to remove the residual DMSO and unattached cells in the cultures treated for 72 hours.
After 3 hours of pre-cultivation (see 3.2.1.2) of the human OPC in the 8-well labtek culture vessels, the cells were incubated at 37° C. for 24 hours or 72 hours in 8-wells labteks (250 μl/well) with the addition of the following solutions: • MSRV-Env Buffer, used as a negative control, added in complete cell culture medium • MSRV-Env added at 3 nM (0.184 μg/ml) in complete cell culture medium • MSRV-Env (3 nM)+GNbAC1 (200 nM; 29.4 μg/ml) mixture added in complete cell culture medium • GNbAC1 (200 nM) alone added in complete cell culture medium Expression of TLR4 and Myelination Markers in OPC In Vitro […]

B1: GNbAC1: recombinant humanized anti-Env IgG4 monoclonal antibody comprising the CDRs of SEQ ID No. 1 to 6 (antibody, chains of the INN, looked up, V domains shown)
VH: QVQLVQSGAEVKKPGSSVKVSCKASGYTFTDYEMHWVRQAPGQGLEWIGAVAPETGGTAYNQKFKGRATITADKSTSTAYMELSSLRSEDTAVYYCTSTVVPFAYWGQGTLVTVSS
VL: QIQLTQSPSSLSASVGDRVTITCSASSSVSYMYWYQQKPGKAPKAWIYRTSNLASGVPSRFSGSGSGTDYTLTISSLQPEDFATYYCQQYQSLPLTFGGGTKVEIK
effect on the decrease of MBP positive cells induced by coated MSRV-Env (GNbAC1 50 nM, both protocols, 72 hours): partial effect; also recorded: partially inhibits MSRV-Env effect | effect on the decrease of MBP positive cells induced by coated MSRV-Env (GNbAC1 200 nM, both protocols, 72 hours): complete inhibition | effect on the inhibition of MBP expression induced by coated MSRV-Env (GNbAC1 200 nM, both protocols, 72 hours, OPC ICC 03): completely reverses | percentage of MBP positive cells (GNbAC1-A 50 nM, coated MSRV-Env 1 μg/ml, 72 hours, OPC ICC 02): 69±2% | MBP positive cells, normalized to control condition (buffer = 100%) (GNbAC1-A 200 nM with coated MSRV-Env): 101±2% | percentage of MBP positive cells (GNbAC1-A 200 nM, coated MSRV-Env 1 μg/ml, 72 hours, OPC ICC 02): 73±2% | percentage of MBP positive cells (GNbAC1-A 200 nM, coated MSRV-Env 1 μg/ml, 72 hours, OPC ICC 03): 80±2% | percentage of MBP positive cells (GNbAC1-B 50 nM, coated MSRV-Env 1 μg/ml, 72 hours, OPC ICC 02): 68±2% | MBP positive cells, normalized to control condition (buffer = 100%) (GNbAC1-B 200 nM with coated MSRV-Env): 97±2% | percentage of MBP positive cells (GNbAC1-B 200 nM, coated MSRV-Env 1 μg/ml, 72 hours, OPC ICC 02): 74±2% | percentage of MBP positive cells (GNbAC1-B 200 nM, coated MSRV-Env 1 μg/ml, 72 hours, OPC ICC 03): 75±2% | percentage of MBP positive cells (MSRV-Env 3 nM + GNbAC1 200 nM in culture medium, 72 hours): 76±2% | effect on the decrease of MBP expression induced by MSRV-Env in culture medium (MSRV-Env 3 nM, GNbAC1 200 nM, 72 hours): inhibits completely this effect
